Laboratory results published in the supplement of paper PMC12042874.
± gives the uncertainty stated by the source.

Experiments:
[1] = amyloid nucleation score (Sup35N fusion, yeast selection) (log enrichment); library NNK2; higher = more nucleation; inactive = no reads after selection
Summary of the method: (§1)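 Peptides of 20 random codons, each fused to Sup35N, were expressed in psi-negative yeast. Cells were induced with 100 μM copper sulfate for 24 hours and grown 7 days at 30°C on medium lacking adenine and uracil, and plasmid inserts before and after selection were Illumina-sequenced. Nucleation scores are DiMSum log enrichments of output over input reads, centred on the mode score of non-aggregating sequences, and sequences under 100 input reads were excluded.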

[2] = amyloid nucleation score (Sup35N fusion, yeast selection) (log enrichment); library NNK3; higher = more nucleation; inactive = no reads after selection
Summary of the method: as §1

RRTIGASTEKYRLNNFLHVC gave an amyloid nucleation score [1] of -0.661 ± 1.1.

VSYDSNAILTFVNSYSRRRL showed an amyloid nucleation score [1] of 1.48 ± 0.19.

In the case of RECFLNPWSVYVRFS, the amyloid nucleation score [1] is reported as -0.086 ± 0.44.

GMSRYMHSIYD showed an amyloid nucleation score [1] of 1 ± 0.41.

Work on GVPIGKKYRTSVCENMEGSW yielded an amyloid nucleation score [1] of -0.627 ± 0.31.

With NVVIRNRFWMNSGRARISAY the amyloid nucleation score [1] was -0.428 ± 0.49.

With YLLPSVTSVTY the amyloid nucleation score [1] was 0.993 ± 0.29.

YLLYGWYTMLALHLALREHI showed an amyloid nucleation score [1] of -0.098 ± 0.79.

In the case of YFKRSGLSICRTGKLALGWH, the amyloid nucleation score [1] is reported as “inactive”.

For LNGLDPSNAHMIYYLYTSYL, the amyloid nucleation score [1] was -1.25 ± 0.54.

In the case of FGRWHYLQRGFKRSGVHFNR, the amyloid nucleation score [1] is reported as “inactive”.

For NWQVPKVFQVLNYA, the amyloid nucleation score [1] was 0.054 ± 0.79.

Substance QHFDLVATGMGYSWAMLYFA has an amyloid nucleation score [1] of 0.776 ± 0.43.

For FRRRRIFYYITEHVLLCMLK, the amyloid nucleation score [1] was -0.5 ± 0.64.

Substance WFCVRVA has an amyloid nucleation score [1] of -0.13 ± 0.37.

PLCRRLVLLFRIFYNSRN showed an amyloid nucleation score [1] of -1.46 ± 1.1.

With AWWRGPSFFNPSWKCMNDSS the amyloid nucleation score [1] was -0.84 ± 0.54.

TYVLSGEGEIKA gave an amyloid nucleation score [1] of 1.54 ± 0.33.

In the case of SGTDDLCMVPLGYLLTMRLP, the amyloid nucleation score [1] is reported as 0.7 ± 0.39.

In the case of GGHDCTVPDGFALGWYMTRG, the amyloid nucleation score [1] is reported as 0.995 ± 0.51.

For GNYPPTFACNSN, the amyloid nucleation score [1] was “inactive”.

CLAPFHYDQYCKWESDSVSR showed an amyloid nucleation score [1] of -0.438 ± 0.44.

GLHEVR showed an amyloid nucleation score [1] of 0.042 ± 0.65.

VWYFIDFGPRKISVITWRYS gave an amyloid nucleation score [1] of -0.642 ± 0.78.

SRNLGGNYGLGGWCNEEFRR showed an amyloid nucleation score [1] of 0.185 ± 0.65.

In the case of VGTSWLFLMV, the amyloid nucleation score [1] is reported as “inactive”.

In the case of NTEEDDKRVRMGELVVEYSN, the amyloid nucleation score [1] is reported as 1.36 ± 0.17.

In the case of QFRAWWFTSVDRTPSDNHTV, the amyloid nucleation score [1] is reported as 4.99 ± 0.059.

Substance GSEECTLTDCRGSRQDILKR has an amyloid nucleation score [1] of 0.078 ± 0.77.

In the case of VYAVDTTW, the amyloid nucleation score [1] is reported as 0.237 ± 0.29.

Work on MFGGPGGGRDRVMVGDVLLG yielded an amyloid nucleation score [1] of 0.295 ± 1.

AVMWTK gave an amyloid nucleation score [1] of 0.669 ± 0.52.

FEGFNAMVSGLRYSSMGCFH showed an amyloid nucleation score [1] of 0.334 ± 0.25.

With GRMWEMACFLATNMLGKSDS the amyloid nucleation score [1] was 0.959 ± 0.29.

For SVFKMNEGFGNEHSNAPMRG, the amyloid nucleation score [1] was “inactive”.

Substance CDMEHTV has an amyloid nucleation score [1] of -0.302 ± 0.61.

WFACYMRIAGTGQEVMYVTM showed an amyloid nucleation score [1] of 0.424 ± 0.24.

In the case of VGNLRGYVKLVISFSVLRHK, the amyloid nucleation score [1] is reported as “inactive”.

Work on PGCHEVSKF yielded an amyloid nucleation score [1] of -1.14 ± 0.47.

For MYVFMVSFYMGFCKYQNSVI, the amyloid nucleation score [1] was “inactive”.

DWVFMRKCSPCWWYYIHLMS gave an amyloid nucleation score [1] of -0.468 ± 0.64.

With ECHANASFFLCRGAERSACG the amyloid nucleation score [1] was 0.783 ± 0.58.

Substance RLDGSG has an amyloid nucleation score [1] of 0.587 ± 0.2.

In the case of FYWHCKGWQRISLGRFIGDC, the amyloid nucleation score [1] is reported as -0.622 ± 0.61.

With WTNFVGLSALFSMWV the amyloid nucleation score [1] was -1.54 ± 1.1.

For TPNNYLYTSFVAY, the amyloid nucleation score [1] was “inactive”.

For PNERFVSTLWCRDVCDPWSW, the amyloid nucleation score [1] was 0.798 ± 0.51.

With VWGWD the amyloid nucleation score [1] was -0.517 ± 0.78.

In the case of SRCIFVFYS, the amyloid nucleation score [1] is reported as 8.165 ± 0.059.

In the case of GGTIKALYNSSGTRRMSKLR, the amyloid nucleation score [1] is reported as -0.224 ± 0.2.

Substance FDAQNSWSWHRSWQNVFRKG has an amyloid nucleation score [1] of 1.54 ± 0.22.

In the case of GASPWPHTTMIFISILSNCV, the amyloid nucleation score [1] is reported as 3.37 ± 0.11.

For AHLARGGWFVKRCYSGGDVF, the amyloid nucleation score [1] was -0.087 ± 0.76.

In the case of VHLNTFATFMGWLTDSWLGV, the amyloid nucleation score [1] is reported as “inactive”.

With VVYSSRLRSDA the amyloid nucleation score [1] was 1.12 ± 0.4.

SEMGTVRRYCLRAYRVCVAY gave an amyloid nucleation score [1] of 0.757 ± 0.57.

In the case of FEDIFCWVY, the amyloid nucleation score [1] is reported as -1.79 ± 0.76.

For LLASRWPRYLNSWRKSHVKV, the amyloid nucleation score [1] was -0.133 ± 1.

NIRVNDCVRHPSGDVQARVS gave an amyloid nucleation score [1] of -0.014 ± 0.35.

Work on IYTWSIRIYRF yielded an amyloid nucleation score [1] of -0.778 ± 0.48.

FWLGSVVGNSCAWVITWAIL gave an amyloid nucleation score [1] of -0.036 ± 0.44.

SCTDLLYDIDCIHSHECLLL showed an amyloid nucleation score [1] of -0.397 ± 0.35.

VSRAFNFSRCRRKISPALQC gave an amyloid nucleation score [1] of 0.135 ± 0.33.

With LLDINSCRFDMVISDMDNCP the amyloid nucleation score [1] was “inactive”.

With RKVSSARNSVIATSMSNNSV the amyloid nucleation score [1] was -1.61 ± 0.54.

Work on KKNEIEVECGPNCGTGTLVF yielded an amyloid nucleation score [1] of 5.04 ± 0.054.

Substance TNWGNAVSSAMRLGSL has an amyloid nucleation score [1] of 0.438 ± 0.28.

In the case of YFNSLLPLLSPFYRPNIALL, the amyloid nucleation score [1] is reported as -0.299 ± 0.56.

In the case of NDGAIGIVAPGEHLLVRDVK, the amyloid nucleation score [1] is reported as -0.573 ± 0.41.

KLHSVQLNTRVLIN showed an amyloid nucleation score [1] of 0.219 ± 0.26.

With DWWERGRVGSGCQSLGVTLH the amyloid nucleation score [1] was 0.923 ± 0.81.

With FLYMQTMLCNSKVFQVSALC the amyloid nucleation score [1] was “inactive”.

With EHVFMSAHFLLNSQRKKN the amyloid nucleation score [1] was -1.9 ± 0.75.

In the case of IFENI, the amyloid nucleation score [1] is reported as “inactive”.

GVNRAWL gave an amyloid nucleation score [1] of 3.35 ± 0.06.

Work on TFYRACALTLMRDQTDSWYC yielded an amyloid nucleation score [1] of 4.35 ± 0.091.

With EFLRNGLFKEVAS the amyloid nucleation score [1] was 0.202 ± 0.64.

SWTCFTLVVRRTAGYWVWSA showed an amyloid nucleation score [1] of 0.331 ± 0.33.

YSSGF showed an amyloid nucleation score [1] of -0.384 ± 0.39.

With QLPSR the amyloid nucleation score [1] was -0.243 ± 0.31.

IYCHPLRYVLFIVSYRVSSA gave an amyloid nucleation score [1] of 0.259 ± 0.56.

With SFLTYKARTMSSKLVKSIML the amyloid nucleation score [1] was -0.563 ± 0.76.

Work on LVYCSLLNLILWMSAYI yielded an amyloid nucleation score [1] of -0.518 ± 0.45.

GGLPGRVVEATCWYPVINVR showed an amyloid nucleation score [1] of 0.889 ± 0.47.

For NKDRGGRYSICRNYANPFVA, the amyloid nucleation score [1] was 0.034 ± 0.29.

For FRWYFNVAATCGNRAPGRNV, the amyloid nucleation score [1] was 1.31 ± 0.18.

With DVIVRLFVPYLVV the amyloid nucleation score [1] was -0.199 ± 0.44.

Substance RIVFHYVCTVLR has an amyloid nucleation score [1] of -0.964 ± 0.76.

TVHRLRNVCLL gave an amyloid nucleation score [1] of 2.51 ± 0.25.

For CCAQWSNFACSV, the amyloid nucleation score [1] was 5.392 ± 0.038.

Work on VVRKRSKMKLRRIHFSWLVW yielded an amyloid nucleation score [1] of 0.744 ± 0.26.

With KCCVENCRWHGRLSSLLFAM the amyloid nucleation score [1] was 0.576 ± 0.34.

SKNSYSAHPKL showed an amyloid nucleation score [1] of 4.83 ± 0.06.

Work on NDFFIFSQEYPYKRMFLQLL yielded an amyloid nucleation score [1] of -1.35 ± 0.53.

Substance PIHNNKHGCFSSERSSFHKM has an amyloid nucleation score [1] of -1.6 ± 0.75.

CWNDSRMCR gave an amyloid nucleation score [1] of -0.387 ± 0.26.

Substance PFSFRLSGINSPPVISVA has an amyloid nucleation score [1] of -1.16 ± 0.41.

For YGSDALYWLVWVYV, the amyloid nucleation score [1] was -0.016 ± 0.48.

In the case of PALCVNAVTKIDRNNCYDNG, the amyloid nucleation score [1] is reported as 3.92 ± 0.064.

For PRSGSYYTFF, the amyloid nucleation score [1] was -0.672 ± 1.1.

In the case of DVLVSILITPRCHHA, the amyloid nucleation score [1] is reported as “inactive”.

Substance SMISM has an amyloid nucleation score [1] of 0.947 ± 0.3.

Substance CVIYVKVIIMPVSIVDVGSV has an amyloid nucleation score [1] of -0.351 ± 0.48.

RHGVVLSNVSKSVVSVPGAK showed an amyloid nucleation score [1] of -0.409 ± 0.76.

With SFMALYLSWFSQRDYAMAGS the amyloid nucleation score [1] was 0.639 ± 0.46.

For HASTEIGSWL, the amyloid nucleation score [1] was 0.552 ± 0.42.

For NWRTCLALNCLTDPAKYLIN, the amyloid nucleation score [1] was -0.725 ± 0.76.

Work on KALFLCILMLSASAFQEECH yielded an amyloid nucleation score [1] of 4.47 ± 0.085.

For RVGIH, the amyloid nucleation score [1] was 1.52 ± 0.22.

For SCTWRRGFSSQVKYMNRQSI, the amyloid nucleation score [1] was 0.989 ± 0.13.

Substance ASILMSRKTMGSNRHCSFVG has an amyloid nucleation score [1] of 0.345 ± 0.3.

With REGYNAIMYDV the amyloid nucleation score [1] was -1.27 ± 0.62.

With SSFQEC the amyloid nucleation score [1] was -1.2 ± 0.62.

For NRYLLRVVLYNSLTRLTVGF, the amyloid nucleation score [2] was “inactive”.

In the case of MLCLWFNEFHDVCPT, the amyloid nucleation score [2] is reported as “inactive”.

Work on FIYSGYTSVNKILGFYNHDS yielded an amyloid nucleation score [2] of 0.95 ± 0.16.

For NLLGTVIIFLRDGSS, the amyloid nucleation score [2] was 2.13 ± 0.064.

In the case of NPLFMQSLKLRCCRNLRFRS, the amyloid nucleation score [2] is reported as “inactive”.

For NLCNWLSCSRTSCNLRLR, the amyloid nucleation score [2] was “inactive”.

In the case of SGMKWYLRLYV, the amyloid nucleation score [2] is reported as “inactive”.

For RISINGFNNLNYLLS, the amyloid nucleation score [2] was 1.39 ± 0.1.

For NSLFSNCARLYGNRGTLGLS, the amyloid nucleation score [2] was “inactive”.

In the case of SFLPNKYLL, the amyloid nucleation score [2] is reported as “inactive”.

In the case of EVDFVALIPCSQTVLFTVEV, the amyloid nucleation score [2] is reported as “inactive”.

With DFYEIRTSGCDLYMFRGVVA the amyloid nucleation score [2] was “inactive”.

With MSIYLQSTM the amyloid nucleation score [2] was “inactive”.
